# Experimental data from US12723255B2, “Herbicide tolerance genes and methods of use thereof” (priority 2014, dated 2026).
# Where “and” joins values, the source holds several entries; their conditions need not be identical. Equal values may be shown once.
# Key:
# Format in all cases: in vivo
# [1] = test system: transgenic soybean plants; experiment: R0 soybean green house 2,4-D spray test; settings: single copy R0 soy events
# Text: Two engineered proteins were selected for analysis in transgenic soybean. DNA constructs were produced for expressing MON-HT1 (SEQ ID NO:14) and MON-HT2 (SEQ ID NO:18) with codon usage optimized for dicot expression using methods known to those skilled in the art. Enhancers, promoters, leaders, introns, CTPs, and 3′UTRs in various combinations were operably linked to the engineered proteins in these DNA constructs. The DNA constructs were used to transform soybean using Agrobacterium tumifaciens and standard methods known in the art. Regenerated R0 transgenic plantlets were grown in the green house. Approximately 9 weeks after transformation at the 1-2 trifoliate leaf stage, single copy R0 events were identified and sprayed with 2,4-D herbicide at a rate of 0.5× (0.375 lb ae/acre), 2× (1.5 lb ae/acre), or 4× (3.0 lb ae/acre). Approximately 2 weeks after herbicide application, the plants were rated for herbicide injury on a scale of 1 to 3, where 1=little to no injury (<20%), 2=moderate injury (20-50%) and 3=severe injury (>50%).
# [2] = test system: transgenic maize plants; experiment: hybrid trait efficacy field trials (F1); settings: 2× quizalofop-P, six locations
# Method: Inbred trait efficacy field trials were conducted to assess tolerance to the AOPP herbicides and sensitivity to the cyclohexanediones (CHD) herbicides in an inbred background. R2 inbred plants were generated by selfing a homozygous transgenic R1 plant and collecting seed. R2 inbred plants containing MON-HT55 with or without a CTP or MON-HT51 with a CTP and were evaluated at two field locations. Herbicide treatment was 2× quizalofop-P at 0.16 lb ai/acre applied PRE (after planting but before emergence) followed by quizalofop-P at 0.16 lb ai/acre applied at V4 growth stage followed by quizalofop-P at 0.16 lb ai/acre applied at V8 growth stage. Plots were rated for crop injury 7-10 days after herbicide application on a scale of 0-100 with zero being no injury and 100 being complete crop death. All data were subjected to analysis of variance and means separated at LSD (0.05). […] To test for sensitivity to CHD herbicides, which is desirable for use in volunteer control, plants were treated with a 1× rate of clethodim (0.25 lb ai/acre) at V8 growth stage. Volunteer control using a 1× rate of clethodim was 100% effective for all transgenic plants tested. Hybrid trait efficacy field trials were conducted to assess tolerance to the AOPP herbicides and sensitivity to the cyclohexanediones (CHD) herbicides in a hybrid background. F1 hybrid plants were produced by crossing an R1 inbred plant with a non-transgenic plant and collecting seed. The resulting F1 plants containing MON-HT55 (SEQ ID NO:13) with or without a CTP or MON-HT51 (SEQ ID NO: 3) without a CTP were evaluated at six field locations. The hybrid trait efficacy field trials were conducted at six locations under a range of environmental conditions, including high heat and drought conditions during the field season. This permitted the engineered protein to be evaluated in maize under high temperature and water stress conditions. Initial injury from 2× applications of quizalofop-P were higher than desired (>10% injury) at 7-10 days after application. Plants eventually grew out of most of the injury, with generally less injury from the V8 growth stage application as compared to the V4 growth stage application. Excessive injury was also noted when quizalofop-P was applied very early (for example, at VE-V2 growth stage).
# [3] = test system: transgenic maize plants; experiment: R1 trait efficacy field trial (quizalofop-P and haloxyfop); settings: 2× quizalofop-P pre-plant, 2× haloxyfop V4, 2× quizalofop-P V8
# Method: To assess the effect of using a CTP to target the engineered protein to the plant cell chloroplast, transgenic plants comprising a transgene insert with and without a CTP operably linked to the protein-coding sequence were compared. […] This unexpected finding was tested again in trait efficacy field trials with R1 plants comprising either MON-HT51 with or without a CTP operably linked to the protein-coding sequence or MON-HT55 with or without a CTP operably linked to the protein-coding sequence. These R1 plants were single-copy, but were still segregating. In this field trial, seed was planted in the field and treated as follows: 2× (0.16 lb ai/acre) quizalofop-P at pre-plant, 2× (0.14 lb ai/acre) haloxyfop at V4 growth stage, then 2× quizalofop-P at V8 growth stage. A higher percentage of plants comprising a CTP operably linked to the protein-coding sequence survived quizalofop-P and haloxyfop applications and had lower injury scores compared to plants not comprising a CTP operably linked to the protein-coding sequence. This confirmed the unexpected finding that a CTP operably linked to the protein-coding sequence confers higher plant tolerance to herbicide application for the engineered proteins.
# [4] = CTP No, 2,4-D rate 0.5X, about 2 weeks after application
Molecule,"Events with 20-50% injury ([1]; CTP No, 2,4-D rate 0.5X)","Events with injury >50% ([1]; CTP No, 2,4-D rate 0.5X)","Events with <20% injury [1, 4]",% injury after V4 spray ([2]; CTP Yes),% injury after V8 spray ([2]; CTP Yes),Average % Herbicide Injury ([3]; CTP No),Average % Herbicide Injury ([3]; CTP Yes),other results
"MON-HT1: engineered oxygenase protein, amino acid sequence SEQ ID NO:14 (protein) MHAALTPLTNKYRFIDVQPLTGVLGAEITGVDLREPLDDSTWNEILDAFHTYQVIYFPGQAITNEQHIAFSRRFGPVDPVPILKSIEGYPEVQMIRREANESSRFIGDDWHTDSTFLDAPPAAVVMRAIEVPEYGGDTGFLSMYSAWETLSPTMQATIEGLNVVHSATKVFGSLYQATNWRFSNTSVKVMDVDAGDRETVHPLVVTHPVTGRRALYCNQVYCQKIQGMTDAESKSLLQFLYEHATKFDFTCRVRWKKDQVLVWDNLCTMHRAVPDYAGKFRYLTRTTVAGDKPSR",10,0,120,,,,,"Events with 20-50% injury ([1]; CTP No, 2,4-D rate 2X): 30; Events with <20% injury ([1]; CTP No, 2,4-D rate 2X): 6; Events with injury >50% ([1]; CTP No, 2,4-D rate 2X): 0; Events with 20-50% injury ([1]; CTP Yes, 2,4-D rate 2X): 35; Events with <20% injury ([1]; CTP Yes, 2,4-D rate 2X): 101; Events with injury >50% ([1]; CTP Yes, 2,4-D rate 2X): 0; Events with 20-50% injury ([1]; CTP Yes, 2,4-D rate 4X): 6; Events with <20% injury ([1]; CTP Yes, 2,4-D rate 4X): 5; Events with injury >50% ([1]; CTP Yes, 2,4-D rate 4X): 0"
"MON-HT2: engineered oxygenase protein, amino acid sequence SEQ ID NO:18 (protein) MHAALTPLTNKYRFIDVQPLTGVLGAEITGVDLREPLDDSTWNEILDAFHTYQVIYFPGQAITNEQHIAFSRRFGPVDPVPLLKSIEGYPEVQMIRREANESSRVIGDDWHSDSTFLDAPPAAVVMRAIEVPEYGGDTGFLSMYSAWETLSPTMQATIEGLNVVHSATKVFGSLYQATNWRFSNTSVKVMDVDAGDRETVHPLVVTHPVTGRRALYCNQVYCQKIQGMTDAESKSLLQFLYEHATKFDFTCRVRWKKDQVLVWDNLCTMHRAAPDYAGKFRYLTRTTVAGDKPSR",19,0,3,,,,,
"MON-HT51: engineered oxygenase protein, amino acid sequence SEQ ID NO:1 (protein) MHAALSPLSQRFERIAVQPLTGVLGAEITGVDLREPLSDSTWNEILDAFHTYQVIYFPGQAITNEQHIAFSRRFGPVDPVPLLKSIEGYPEVQMIRREANESGRVIGDDWHTDSSFLDAPPAAVVMRAIDVPEHGGDTGFLSMYTAYDALSDGLKKLISGLNVVHSATRVFGSLYQAQNRRFSNTSVKVMDVADGDRETVHPLVVTHPGSGRKGLYVNQVYCQRIEGMSEKESEPLLSFLFAHATKPEFTCRVRWKKDQVLVWDNLCTMHYAINDYHGQTRILHRTTVGGVRPAR",,,,51.8%,33.3%,95%,35%,
"MON-HT55: engineered oxygenase protein, amino acid sequence SEQ ID NO:11 (protein) MHAALSPLSQRFERIAVQPLTGVLGAEITGVDLREPLDDSTWNEILDAFHTYQVIYFPGQAITNEQHIAFSRRFGPVDPVPLLKSIEGYPEVQMIRREANESGRVIGENWHTDSTFLDAPPAAVVMYAKEIPPYGGDTLFTSMYTAWETLSPTMQATIEGLNVVHSATRVFGSLYQAQNRRFSNTSVKVMDVDAGDRETVHPLVVTHPETGRKGLYVNQVYCQRIEGMSEKESEPLLSFLFAHATKPEFTCRVRWQEGDVLVWDNLCTQHYAVPDYAGKFRYLTRTTVGGVRPAR",,,,42.6-48.3%,14.2-38.8%,49% and 90%,24% and 25%,% injury after V4 spray ([2]; CTP No): 46.8%; % injury after V8 spray ([2]; CTP No): 78.8%
